Reference: paper doi:10.1101/2019.12.13.867358 (bioRxiv, 2019)

Target: T1, Smc4 (S. cerevisiae, UniProt Q12267 1-1418)
T1 sequence (looked up): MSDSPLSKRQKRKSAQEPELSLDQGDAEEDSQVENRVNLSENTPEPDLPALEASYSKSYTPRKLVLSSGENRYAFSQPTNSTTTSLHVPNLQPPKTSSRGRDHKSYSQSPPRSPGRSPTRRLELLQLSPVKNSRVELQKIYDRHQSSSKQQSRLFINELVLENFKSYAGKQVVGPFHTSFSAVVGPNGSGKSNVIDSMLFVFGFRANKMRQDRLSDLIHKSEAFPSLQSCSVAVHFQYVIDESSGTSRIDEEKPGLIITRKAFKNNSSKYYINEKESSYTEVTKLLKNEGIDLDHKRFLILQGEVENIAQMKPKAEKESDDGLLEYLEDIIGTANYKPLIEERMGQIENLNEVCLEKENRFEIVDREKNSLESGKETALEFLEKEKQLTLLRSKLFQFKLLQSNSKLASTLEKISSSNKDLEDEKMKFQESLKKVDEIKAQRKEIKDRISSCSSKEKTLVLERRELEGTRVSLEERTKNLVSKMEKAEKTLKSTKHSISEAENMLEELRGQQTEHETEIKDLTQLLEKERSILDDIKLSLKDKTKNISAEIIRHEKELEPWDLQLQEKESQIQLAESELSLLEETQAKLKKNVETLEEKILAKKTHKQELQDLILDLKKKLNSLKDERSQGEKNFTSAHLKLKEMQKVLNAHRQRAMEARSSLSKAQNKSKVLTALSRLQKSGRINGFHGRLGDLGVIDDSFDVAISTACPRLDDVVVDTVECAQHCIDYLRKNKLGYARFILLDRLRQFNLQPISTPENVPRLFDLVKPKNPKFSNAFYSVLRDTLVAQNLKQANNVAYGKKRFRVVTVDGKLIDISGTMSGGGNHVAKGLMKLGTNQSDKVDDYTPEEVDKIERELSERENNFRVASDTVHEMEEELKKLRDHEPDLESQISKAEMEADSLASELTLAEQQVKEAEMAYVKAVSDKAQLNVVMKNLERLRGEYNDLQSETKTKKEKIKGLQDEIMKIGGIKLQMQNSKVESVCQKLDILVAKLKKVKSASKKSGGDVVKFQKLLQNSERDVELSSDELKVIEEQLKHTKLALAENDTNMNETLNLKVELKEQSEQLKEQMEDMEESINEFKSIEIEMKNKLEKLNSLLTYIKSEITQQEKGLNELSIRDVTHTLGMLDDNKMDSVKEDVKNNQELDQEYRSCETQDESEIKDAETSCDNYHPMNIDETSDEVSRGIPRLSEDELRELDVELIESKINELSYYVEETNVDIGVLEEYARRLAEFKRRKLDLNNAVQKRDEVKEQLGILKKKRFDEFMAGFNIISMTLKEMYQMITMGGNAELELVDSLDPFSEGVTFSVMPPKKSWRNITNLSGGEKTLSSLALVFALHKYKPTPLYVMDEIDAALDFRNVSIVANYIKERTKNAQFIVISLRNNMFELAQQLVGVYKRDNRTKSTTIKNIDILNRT
Test: AFM imaging

binding result: binds
B1: Smc2 (natural protein, S. cerevisiae, UniProt P38989 1-1170, looked up)
chain: MKVEELIIDGFKSYATRTVITDWDPQFNAITGLNGSGKSNILDAICFVLGIASMSTVRASSLQDLIYKRGQAGVTKASVTIVFDNTDKSNSPIGFTNSPQISVTRQVVLGGTSKYLINGHRAPQQSVLQLFQSVQLNINNPNFLIMQGKITKVLNMKPSEILSLIEEAAGTKMFEDRREKAERTMSKKETKLQENRTLLTEEIEPKLEKLRNEKRMFLEFQSTQTDLEKTERIVVSYEYYNIKHKHTSIRETLENGETRMKMLNEFVKKTSEEIDSLNEDVEEIKLQKEKELHKEGTISKLENKENGLLNEISRLKTSLSIKVENLNDTTEKSKALESEIASSSAKLIEKKSAYANTEKDYKMVQEQLSKQRDLYKRKEELVSTLTTGISSTGAADGGYNAQLAKAKTELNEVSLAIKKSSMKMELLKKELLTIEPKLKEATKDNELNVKHVKQCQETCDKLRARLVEYGFDPSRIKDLKQREDKLKSHYYQTCKNSEYLKRRVTNLEFNYTKPYPNFEASFVHGVVGQLFQIDNDNIRYATALQTCAGGRLFNVVVQDSQTATQLLERGRLRKRVTIIPLDKIYTRPISSQVLDLAKKIAPGKVELAINLIRFDESITKAMEFIFGNSLICEDPETAKKITFHPKIRARSITLQGDVYDPEGTLSGGSRNTSESLLVDIQKYNQIQKQIETIQADLNHVTEELQTQYATSQKTKTIQSDLNLSLHKLDLAKRNLDANPSSQIIARNEEILRDIGECENEIKTKQMSLKKCQEEVSTIEKDMKEYDSDKGSKLNELKKELKLLAKELEEQESESERKYDLFQNLELETEQLSSELDSNKTLLHNHLKSIESLKLENSDLEGKIRGVEDDLVTVQTELNEEKKRLMDIDDELNELETLIKKKQDEKKSSELELQKLVHDLNKYKSNTNNMEKIIEDLRQKHEFLEDFDLVRNIVKQNEGIDLDTYRERSKQLNEKFQELRKKVNPNIMNMIENVEKKEAALKTMIKTIEKDKMKIQETISKLNEYKRETLVKTWEKVTLDFGNIFADLLPNSFAKLVPCEGKDVTQGLEVKVKLGNIWKESLIELSGGQRSLIALSLIMALLQFRPAPMYILDEVDAALDLSHTQNIGHLIKTRFKGSQFIVVSLKEGMFANANRVFRTRFQDGTSVVSIM
